Biological target: T1, Orf8-IL17RA interaction (Homo sapiens, UniProt Q96F46)
T1 construct: co-immunoprecipitation of endogenous IL17RA with Strep-tagged Orf8; host or cells: HEK293T
T1 sequence (Q96F46 33-866): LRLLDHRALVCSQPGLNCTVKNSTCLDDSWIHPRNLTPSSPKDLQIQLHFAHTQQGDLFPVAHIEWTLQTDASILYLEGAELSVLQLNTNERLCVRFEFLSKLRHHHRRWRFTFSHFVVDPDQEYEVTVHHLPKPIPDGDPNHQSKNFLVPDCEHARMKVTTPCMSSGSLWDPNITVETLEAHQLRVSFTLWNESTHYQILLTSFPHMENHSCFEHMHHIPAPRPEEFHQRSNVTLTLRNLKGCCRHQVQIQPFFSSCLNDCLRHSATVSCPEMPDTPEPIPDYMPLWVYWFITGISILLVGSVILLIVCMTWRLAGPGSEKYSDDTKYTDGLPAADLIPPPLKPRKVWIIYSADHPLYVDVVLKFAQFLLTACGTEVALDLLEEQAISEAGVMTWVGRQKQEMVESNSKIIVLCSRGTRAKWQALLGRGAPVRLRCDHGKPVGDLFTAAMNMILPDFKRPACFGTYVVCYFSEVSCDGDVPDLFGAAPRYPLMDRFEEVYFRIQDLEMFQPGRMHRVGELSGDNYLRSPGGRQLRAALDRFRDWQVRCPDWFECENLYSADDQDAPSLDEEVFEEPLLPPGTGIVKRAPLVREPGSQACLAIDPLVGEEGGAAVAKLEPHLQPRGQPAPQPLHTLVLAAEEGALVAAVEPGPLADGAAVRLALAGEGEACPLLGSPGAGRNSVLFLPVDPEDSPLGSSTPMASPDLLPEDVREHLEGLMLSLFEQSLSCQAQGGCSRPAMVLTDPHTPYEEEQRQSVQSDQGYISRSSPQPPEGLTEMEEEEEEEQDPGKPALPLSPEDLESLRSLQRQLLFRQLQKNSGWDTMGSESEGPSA
Format: binding

## IL-17A
  Effect on Orf8-IL17RA interaction (co-immunoprecipitation, in words): does not disrupt the interaction with Orf8

From patent US20230395193A1 (priority 2020, published 2023)
